Tested on: peptide library, one residue held at a place counted from the S/T acceptor
Assay: relative phosphorylation of the sub-library (ratio to the mean residue at this position); higher = residue favoured
Details: human
Summary of the method: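 In 384-well plates, purified recombinant kinases (human or orthologue constructs) were incubated for 90 min under kinase-specific conditions with 50 μM biotinylated degenerate peptide sub-libraries and 50 μM ATP spiked with γ-32P-ATP. Each sub-library fixed a single residue at one position around a central Ser/Thr. Relative sub-library phosphorylation, measured by phosphorimaging and densitometry of streptavidin membrane spots, is given as a ratio to the mean residue at that position.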

Chain of STK4, construct: Full length (Q13043 whole entry, looked up): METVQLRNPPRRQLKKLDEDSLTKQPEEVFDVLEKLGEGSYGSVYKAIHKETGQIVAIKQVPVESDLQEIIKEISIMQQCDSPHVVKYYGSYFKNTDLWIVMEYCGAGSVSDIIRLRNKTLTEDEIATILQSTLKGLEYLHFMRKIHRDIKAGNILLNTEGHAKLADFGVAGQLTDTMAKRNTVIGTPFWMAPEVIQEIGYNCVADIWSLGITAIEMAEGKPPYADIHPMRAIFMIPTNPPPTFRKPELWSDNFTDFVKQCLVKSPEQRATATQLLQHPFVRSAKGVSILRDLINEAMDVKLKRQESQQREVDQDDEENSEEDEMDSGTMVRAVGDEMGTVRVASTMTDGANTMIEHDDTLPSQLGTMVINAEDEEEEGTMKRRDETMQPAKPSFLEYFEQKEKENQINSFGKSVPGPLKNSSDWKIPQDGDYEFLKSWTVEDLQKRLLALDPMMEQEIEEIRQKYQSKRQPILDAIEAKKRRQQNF
Chain of SIK1, construct: aa1-303 (P57059 1-303, looked up): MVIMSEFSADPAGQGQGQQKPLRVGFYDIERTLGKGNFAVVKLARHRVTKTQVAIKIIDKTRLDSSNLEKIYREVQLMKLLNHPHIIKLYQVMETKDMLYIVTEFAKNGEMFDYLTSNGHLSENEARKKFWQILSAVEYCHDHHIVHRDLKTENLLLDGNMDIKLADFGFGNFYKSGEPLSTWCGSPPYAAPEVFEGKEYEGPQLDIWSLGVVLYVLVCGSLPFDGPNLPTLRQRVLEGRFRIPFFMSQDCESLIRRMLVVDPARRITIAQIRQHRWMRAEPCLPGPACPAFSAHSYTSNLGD

SIK1, construct: aa1-303 (from UniProt P57059)
relative phosphorylation
Details | at +1 | at +2 | at +3 | at +4 | at -1 | at -2 | at -3 | at -4 | at -5
A fixed | 0.56 | 1.1 | 0.618 | 0.641 | 0.972 | 1.89 | 0.589 | 0.941 | 1.01
D fixed | 0.593 | 0.666 | 1.84 | 0.416 | 0.724 | 0.326 | 0.282 | 0.786 | 0.672
E fixed | 0.718 | 0.524 | 0.523 | 0.334 | 0.46 | 0.304 | 0.309 | 0.966 | 0.746
F fixed | 0.996 | 0.694 | 1.08 | 0.86 | 0.432 | 1.13 | 0.47 | 0.768 | 1.22
G fixed | 0.493 | 0.841 | 0.595 | 0.697 | 2.75 | 0.851 | 0.382 | 1.01 | 0.737
H fixed | 0.797 | 0.662 | 1.18 | 0.767 | 0.966 | 1.44 | 0.877 | 1.24 | 0.829
I fixed | 1.18 | 1.06 | 0.907 | 2.22 | 0.289 | 0.451 | 0.24 | 0.457 | 0.721
K fixed | 0.839 | 0.992 | 0.716 | 0.722 | 1.76 | 1.23 | 2.52 | 1.61 | 1.31
L fixed | 1.11 | 0.626 | 0.992 | 4.05 | 0.722 | 0.35 | 0.343 | 0.535 | 1.7
M fixed | 1.87 | 0.998 | 0.928 | 1.48 | 0.82 | 0.556 | 0.508 | 0.93 | 1.09
N fixed | 1.2 | 1.09 | 2.97 | 0.688 | 1.43 | 0.809 | 0.587 | 1.01 | 0.894
P fixed | 0.315 | 1.08 | 0.439 | 0.676 | 1.24 | 0.347 | 0.505 | 1.09 | 0.831
Q fixed | 2.08 | 0.958 | 0.965 | 0.557 | 1.4 | 0.784 | 0.675 | 1.01 | 0.958
R fixed | 1.16 | 1.33 | 0.659 | 0.518 | 1.22 | 1.35 | 6.57 | 1.86 | 1.65
V fixed | 1.23 | 1.1 | 0.599 | 1.12 | 0.565 | 0.868 | 0.329 | 0.512 | 0.744
W fixed | 0.868 | 2.13 | 0.916 | 0.695 | 0.516 | 2.72 | 1.25 | 1.24 | 1.05
Y fixed | 0.982 | 1.14 | 1.08 | 0.564 | 0.732 | 1.59 | 0.569 | 1.03 | 0.832
pThr fixed | 0.764 | 0.579 | 0.35 | 0.475 | 0.285 | 0.388 | 0.433 | 0.706 | 0.562
pTyr fixed | 0.75 | 0.358 | 0.419 | 0.526 | 0.812 | 0.469 | 0.515 | 0.699 | 0.731

STK4, construct: Full length (from UniProt Q13043)
relative phosphorylation
Details | at +1 | at +2 | at +3 | at +4 | at -1 | at -2 | at -3 | at -4 | at -5
A fixed | 0.647 | 0.612 | 0.745 | 0.743 | 0.705 | 0.763 | 0.756 | 0.771 | 0.964
D fixed | 0.276 | 0.533 | 0.669 | 0.779 | 1.43 | 1.46 | 1.24 | 1.07 | 1.35
E fixed | 0.245 | 0.413 | 0.627 | 0.668 | 0.881 | 1.09 | 0.916 | 1.12 | 0.833
F fixed | 0.995 | 0.677 | 0.965 | 0.892 | 0.877 | 1.66 | 1.05 | 1.02 | 0.98
G fixed | 0.641 | 0.75 | 0.917 | 0.987 | 1.1 | 0.747 | 1.07 | 0.983 | 0.91
H fixed | 0.703 | 1.33 | 1.12 | 1.05 | 1.26 | 1.15 | 1.06 | 1.27 | 1.04
I fixed | 1.91 | 0.449 | 0.682 | 0.738 | 0.329 | 0.507 | 0.622 | 0.766 | 0.581
K fixed | 0.639 | 3.53 | 1.85 | 1.5 | 1.93 | 0.591 | 0.963 | 1.08 | 1.15
L fixed | 2.6 | 0.759 | 0.779 | 1.01 | 0.822 | 0.596 | 0.577 | 0.749 | 0.773
M fixed | 2.59 | 0.588 | 0.673 | 0.918 | 0.735 | 1 | 0.658 | 0.742 | 0.757
N fixed | 0.558 | 1.13 | 1.21 | 1.24 | 1.45 | 1.28 | 1.25 | 1.06 | 1.02
P fixed | 0.196 | 0.926 | 1.19 | 1.13 | 0.897 | 0.681 | 0.992 | 0.674 | 1.33
Q fixed | 0.685 | 1.23 | 1.07 | 1.3 | 1.17 | 1.03 | 1.35 | 1.34 | 1.24
R fixed | 0.615 | 2.29 | 2.01 | 1.19 | 1.33 | 0.582 | 0.78 | 1.01 | 1.08
V fixed | 1.08 | 0.779 | 0.702 | 0.789 | 0.397 | 0.561 | 0.646 | 0.954 | 0.861
W fixed | 1.79 | 0.495 | 0.884 | 1.27 | 0.776 | 1.59 | 1.63 | 1.17 | 1.09
Y fixed | 0.816 | 0.524 | 0.898 | 0.793 | 0.926 | 1.72 | 1.45 | 1.24 | 1.05
pThr fixed | 0.822 | 1.04 | 0.958 | 0.825 | 0.594 | 1.02 | 0.978 | 0.889 | 0.769
pTyr fixed | 0.627 | 0.715 | 0.937 | 0.899 | 0.908 | 2.04 | 1.39 | 0.975 | 1.09
